Results from US20240327516A1 (Zymeworks, published 2024).
Where two headings read alike, the source gives them in different places.

B1: Recombinant CD3epsilon/delta Fc fusion protein (Sino Biological) (Fc fusion)
chain 1: DGNEEMGGITQTPYKVSISGTTVILTCPQYPGSEILWQHNDKNIGGDEDDKNIGSDEDHLSLKEFSELEQSGYYVCYPRGSKPEDANFYLYLRARVCENCMEMD
chain 2: FKIPIEELEDRVFVNCNTSITWVEGTVGTLLSDITRLDLGKRILDPRGIYRCNGTDIYKDKESTVQVHYRMCQSCVELDPATVA
notes: also called recombinant CD3 fusion protein

Key:
[1] = molecular target: T1, v31805, MH6T-TriTAC benchmark construct [MSLN (VHH) x Alb (VHH) x CD3 (scFv)]; assay: SPR, BioRad ProteOn XPR36, 25 C, CD3 epsilon/delta-Fc captured on anti-Fc chip
[2] = molecular target: T1, v31805, MH6T-TriTAC benchmark construct …; assay: SPR, BioRad ProteOn XPR36, 25 C, CD3 epsilon/delta-Fc captured on anti-Fc chip; value as printed, implausible for ka
[3] = molecular target: T2, mesothelin (MSLN) on MSLN-expressing tumor cells (human, UniProt Q13421 296-598)
[4] = molecular target: T2, mesothelin (MSLN) on MSLN-expressing …; remark: listed apart in the source
[5] = molecular target: T2, mesothelin (MSLN) on MSLN-expressing …; remark: listed apart in the source
[6] = molecular target: T2, mesothelin (MSLN) on MSLN-expressing …; assay: cell-based or functional assay
[7] = molecular target: T2, mesothelin (MSLN) on MSLN-expressing …; assay: cell-based or functional assay; remark: listed apart in the source
[8] = molecular target: T3, MSLN (form in the assay not stated) (UniProt Q13421 296-580); assay: method not stated; reference v29191
[9] = molecular target: T3, MSLN (form in the assay not stated); assay: method not stated; reference v31805
[10] = molecular target: T3, MSLN (form in the assay not stated); assay: method and antigen form not stated in Table 12
[11] = molecular target: T4, CD3 on CD3+ Jurkat cells and primary human T cells (human, UniProt P07766 23-207); assay: whole-cell ELISA on CD3+ Jurkat cells, apparent affinity
T4 construct: whole, on cells; also called native CD3; CD3ε

[12] = molecular target: T4, CD3 on CD3+ Jurkat cells and primary …; assay: flow cytometry on primary human T cells, apparent affinity
[13] = molecular target: T4, CD3 on CD3+ Jurkat cells and primary …; assay: cell ELISA on whole CD3+ Jurkat cells (HRP anti-human IgG Fc, A 450nm)
[14] = molecular target: T5, Recombinant MSLN Fc fusion protein (R&D: 3265-MS) (UniProt Q13421 296-580); assay: SPR; reference v31805
T5 construct: also called recombinant MSLN fusion protein

[15] = molecular target: B1; assay: SPR; reference v31805
[16] = molecular target: T2, mesothelin (MSLN) on MSLN-expressing …; assay: cell-based or functional assay; remark: listed apart in the source
[17] = molecular target: T4, CD3 on CD3+ Jurkat cells and primary …; assay: flow cytometry on primary human T cells; reference v29191
Target sequence in this assay (P07766 23-207): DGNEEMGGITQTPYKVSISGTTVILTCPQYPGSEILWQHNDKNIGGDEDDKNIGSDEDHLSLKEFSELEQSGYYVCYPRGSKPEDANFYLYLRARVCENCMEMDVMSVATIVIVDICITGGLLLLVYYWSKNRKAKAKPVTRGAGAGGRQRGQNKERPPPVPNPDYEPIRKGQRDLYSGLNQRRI

[18] = molecular target: T4, CD3 on CD3+ Jurkat cells and primary …; assay: flow cytometry on primary human T cells; reference v31805
Target sequence in this assay (P07766 23-207): as above

[19] = molecular target: T2, mesothelin (MSLN) on MSLN-expressing …; assay: whole-cell flow cytometry on OVCAR-3 cells, apparent affinity
[20] = molecular target: T5, Recombinant MSLN Fc fusion protein …; assay: SPR, BioRad ProteOn XPR36, 25 C, MSLN-Fc captured on anti-Fc chip
[21] = molecular target: T5, Recombinant MSLN Fc fusion protein …; assay: assay not given; matches Table 15 (SPR); reference v31805
[22] = molecular target: B1; assay: as above
[23] = molecular target: T4, CD3 on CD3+ Jurkat cells and primary …; assay: whole-cell flow cytometry on primary human T cells, apparent affinity
Target sequence in this assay (P07766 23-207): as above

[24] = molecular target: B1; assay: SPR, BioRad ProteOn XPR36, 25 C, CD3 epsilon/delta-Fc captured on anti-Fc chip
[25] = molecular target: T2, mesothelin (MSLN) on MSLN-expressing …; assay: flow cytometry on MSLN+ OVCAR-3 cells (Alexa Fluor 647 anti-IgG-Fc, MFI)
[26] = molecular target: T4, CD3 on CD3+ Jurkat cells and primary …; assay: flow cytometry on human pan T cells, CD4+ gate (Alexa Fluor 647 anti-IgG-Fc, MFI)
Target sequence in this assay (P07766 23-207): as above

[27] = molecular target: T4, CD3 on CD3+ Jurkat cells and primary …; assay: flow cytometry on human pan T cells, CD8+ gate (Alexa Fluor 647 anti-IgG-Fc, MFI)
Target sequence in this assay (P07766 23-207): as above

[28] = molecular target: T4, CD3 on CD3+ Jurkat cells and primary …; assay: flow cytometry on human pan T cells, CD4+ and CD8+ cells together (Alexa Fluor 647 anti-IgG-Fc, MFI)
Target sequence in this assay (P07766 23-207): as above

[29] = molecular target: T2, mesothelin (MSLN) on MSLN-expressing …; assay: assay not given; matches Table 16 (OVCAR-3 cells); reference v32523

T2 sequence (Q13421 other isoform, or with tags, fused parts or gaps limits assumed): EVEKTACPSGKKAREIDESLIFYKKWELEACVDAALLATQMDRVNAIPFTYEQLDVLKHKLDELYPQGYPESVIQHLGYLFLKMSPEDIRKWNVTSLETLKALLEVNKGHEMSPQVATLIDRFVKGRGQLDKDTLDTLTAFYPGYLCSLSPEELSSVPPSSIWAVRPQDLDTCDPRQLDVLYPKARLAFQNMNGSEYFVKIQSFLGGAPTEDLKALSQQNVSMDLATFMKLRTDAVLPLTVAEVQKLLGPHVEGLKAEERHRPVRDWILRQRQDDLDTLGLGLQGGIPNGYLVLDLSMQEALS
T3 sequence (Q13421 other isoform, or with tags, fused parts or gaps limits assumed): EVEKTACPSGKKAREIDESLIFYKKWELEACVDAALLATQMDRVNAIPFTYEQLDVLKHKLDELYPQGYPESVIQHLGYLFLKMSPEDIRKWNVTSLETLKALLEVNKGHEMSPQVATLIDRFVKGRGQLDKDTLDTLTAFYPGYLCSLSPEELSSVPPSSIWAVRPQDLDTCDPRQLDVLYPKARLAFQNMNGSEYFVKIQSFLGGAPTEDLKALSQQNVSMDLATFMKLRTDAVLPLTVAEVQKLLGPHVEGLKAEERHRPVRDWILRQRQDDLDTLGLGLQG

B1 gave a Kd [1] of 0.75 nM, a koff [1] of 0.00379 s⁻¹ and a kon [2] of 5.04e+06 M⁻¹ s⁻¹.

B2: v21812, trivalent and bispecific antibody construct [MSLN (2 scFv) x CD3 (1 Fab)] (bispecific antibody, human IgG1, lambda, L234A L235A)
heavy 1: QVQLVQSGAEVKKPGASVKVSCKASGYSFTGYTMNWVRQAPGQGLEWMGLITPYNGASSYNQKFRGKATMTVDTSTSTVYMELSSLRSEDTAVYYCARGGYDGRGFDYWGQGTLVTVSSGGGGSGGGGSGGGGSDIQMTQSPSSLSASVGDRVTITCSASSSVSYMHWYQQKSGKAPKLLIYDTSKLASGVPSRFSGSGSGTDFTLTISSLQPEDFATYYCQQWSGYPLTFGQGTKLEIKAAEPKSSDKTHTCPPCPAPEAAGGPSVFLFPPKPKDTLMISRTPEVTCVVVSVSHEDPEVKFNWYVDGVEVHNAKTKPREEQYNSTYRVVSVLTVLHQDWLNGKEYKCKVSNKALPAPIEKTISKAKGQPREPQVYVLPPSRDELTKNQVSLLCLVKGFYPSDIAVEWESNGQPENNYLTWPPVLDSDGSFFLYSKLTVDKSRWQQGNVFSCSVMHEALHNHYTQKSLSLSPG
heavy 2: not shown
light: NFMLTQPHSVSESPGKTVTISCKRNTGNIGSNYVNWYQQHEGSSPTTIIYRNDKRPDGVSDRFSGSIDRSSKSASLTISNLKTEDEADYFCQSYSSGFIFGGGTKLTVLGQPKAAPSVTLFPPSSEELQANKATLVCLISDFYPGAVTVAWKADSSPVKAGVETTTPSKQSNNKYAASSYLSLTPEQWKSHRSYSCQVTHEGSTVEKTVAPTECS
notes: also called parental construct of v32523; dual scFv trivalent variant
With B2 the Kd [3] was ~0.47 nM, the EC50 [4] was 0.4 nM and the “EC50 (read off the curve)” value [5] was ~0.5 nM. The “maximum killing of BxPC3 cells” value [6] was 75%, the “IC50 of T cell-dependent cytotoxicity on OVCAR-3 cells (pan T cells, E:T 5:1, 72 h)” value [7] was 0.05 pM and the “fold lower binding affinity vs v29191” value [8] was ~45 fold. For the same binder, the “fold lower affinity vs v31805” value [9] was ~20 fold, the “Affinity to MSln” value [10] was 0.9 nM and the EC50 [11] was 17.7 nM. For the same binder, the EC50 [12] was 58.8 nM and the “EC50 (read off the curve)” value [13] was ~9 nM.

B3: v32523, trivalent and bispecific antibody construct [MSLN (2 scFv) x CD3 (1 Fab)] (bispecific antibody, human IgG1, lambda, L234A L235A)
heavy 1: not shown
heavy 2: DIQMTQSPSSLSASVGDRVTITCSASSSVSYMHWYQQKSGKAPKLLIYDTSKLASGVPSRFSGSGSGTDFTLTISSLQPEDFATYYCQQWSGYPLTFGQGTKLEIKGGGGSGGGGSGGGGSGGGGSQVQLVQSGAEVKKPGASVKVSCKASGYSFTGYTMNWVRQAPGQGLEWMGLITPYNGASSYNQKFRGKATMTVDTSTSTVYMELSSLRSEDTAVYYCARGGYDGRGFDYWGQGTLVTVSSAAEPKSSDKTHTCPPCPAPEAAGGPSVFLFPPKPKDTLMISRTPEVTCVVVSVSHEDPEVKFNWYVDGVEVHNAKTKPREEQYNSTYRVVSVLTVLHQDWLNGKEYKCKVSNKALPAPIEKTISKAKGQPREPQVYVLPPSRDELTKNQVSLLCLVKGFYPSDIAVEWESNGQPENNYLTWPPVLDSDGSFFLYSKLTVDKSRWQQGNVFSCSVMHEALHNHYTQKSLSLSPG
light: NFMLTQPHSVSESPGKTVTISCKRNTGNIGSNYVNWYQQHEGSSPTTIIYRNDKRPDGVSDRFSGSIDRSSKSASLTISNLKTEDEADYFCQSYSSGFIFGGGTKLTVLGQPKAAPSVTLFPPSSEELQANKATLVCLISDFYPGAVTVAWKADSSPVKAGVETTTPSKQSNNKYAASSYLSLTPEQWKSHRSYSCQVTHEGSTVEKTVAPTECS
notes: also called construct v32523; stability engineered construct
For B3, the “fold lower affinity vs v31805” value [14] was 32 fold, the “fold lower affinity vs v31805” value [15] was 53 fold and the “IC50 of T cell-dependent cytotoxicity on HCT116 cells (pan T cells, E:T 5:1, 72 h)” value [16] was 0.0011 nM. The “fold lower apparent affinity vs v29191” value [17] was ~2.7 fold, the “fold lower apparent affinity vs v31805” value [18] was ~8.6 fold and the EC50 [19] was 2.8 nM. For the same binder, the Kd [20] was 1.01 nM, the koff [20] was 0.000719 s⁻¹ and the kon [20] was 714000 M⁻¹ s⁻¹. The “fold lower affinity vs v31805” value [21] was ~30 fold, the “fold lower affinity vs v31805” value [22] was ~50 fold and the EC50 [23] was 50.5 nM. It also gave a Kd [24] of 40.1 nM, a koff [24] of 0.0112 s⁻¹ and a kon [24] of 279000 M⁻¹ s⁻¹. The “EC50 (read off the curve)” value [25] was ~3 nM, the “EC50 (read off the curve)” value [26] was ~60 nM and the “EC50 (read off the curve)” value [27] was ~80 nM. For the same binder, the “EC50 (read off the curve)” value [28] was ~60 nM.

B4: v29191, 2+1 Fab^3 TCB benchmark construct [MSLN (2 Fab) x CD3 (1 Fab)] (bispecific antibody, human IgG1, kappa, L234A L235A)
heavy 1: not shown
heavy 2: QVQLVQSGAEVKKPGASVKVSCKASGYSFTGYTMNWVRQAPGQGLEWMGLITPYNGASSYNQKFRGKATMTVDTSTSTVYMELSSLRSEDTAVYYCARGGYDGRGFDYWGQGTLVTVSSASTKGPSVFPLAPSSKSTSGGTAALGCLVEDYFPEPVTVSWNSGALTSGVHTFPAVLQSSGLYSLSSVVTVPSSSLGTQTYICNVNHKPSNTKVDEKVEPKSCDKTHTCPPCPAPEAAGGPSVFLFPPKPKDTLMISRTPEVTCVVVDVSHEDPEVKFNWYVDGVEVHNAKTKPREEQYNSTYRVVSVLTVLHQDWLNGKEYKCKVSNKALGAPIEKTISKAKGQPREPQVCTLPPSRDELTKNQVSLSCAVKGFYPSDIAVEWESNGQPENNYKTTPPVLDSDGSFFLVSKLTVDKSRWQQGNVFSCSVMHEALHNHYTQKSLSLSPG
light 1: EVQLLESGGGLVQPGGSLRLSCAASGFTFSTYAMNWVRQAPGKGLEWVSRIRSKYNNYATYYADSVKGRFTISRDDSKNTLYLQMNSLRAEDTAVYYCVRHGNFGNSYVSWFAYWGQGTLVTVSSASVAAPSVFIFPPSDEQLKSGTASVVCLLNNFYPREAKVQWKVDNALQSGNSQESVTEQDSKDSTYSLSSTLTLSKADYEKHKVYACEVTHQGLSSPVTKSFNRGEC
light 2: DIQMTQSPSSLSASVGDRVTITCSASSSVSYMHWYQQKSGKAPKLLIYDTSKLASGVPSRFSGSGSGTDFTLTISSLQPEDFATYYCQQWSKHPLTFGQGTKLEIKRTVAAPSVFIFPPSDRKLKSGTASVVCLLNNFYPREAKVQWKVDNALQSGNSQESVTEQDSKDSTYSLSSTLTLSKADYEKHKVYACEVTHQGLSSPVTKSFNRGEC
notes: also called Fab^3 benchmark
In the case of B4, the “IC50 of T cell-dependent cytotoxicity on OVCAR-3 cells (pan T cells, E:T 5:1, 72 h)” value [7] is reported as 0.89 pM, the “Affinity to MSln” value [10] is reported as 0.02 nM and the EC50 [19] is reported as 0.4 nM. For the same binder, the EC50 [23] was 18.7 nM, the “fold higher relative affinity vs v32523” value [29] was 7 fold and the “EC50 (read off the curve)” value [26] was ~20 nM. For the same binder, the “EC50 (read off the curve)” value [27] was ~30 nM and the “EC50 (read off the curve)” value [28] was ~20 nM.
